Results taken from patent US20220305006A1, “COMPOSITIONS AND METHODS FOR THE TREATMENT OF NEUROLOGICAL DISEASES AND DISORDERS” (The Regents of the University of California, priority 2019, published 2022).

Biological target: BACE1 structure PDB ID: 1XN3 after removal of BACE inhibitor 1 (apo model used in silico) (UniProt P56817)
Assay: computed, not measured: MMPBSA (AMBER) on 10000 snapshots of a 50 ns molecular dynamics run

Chain of BACE1 structure PDB ID: 1XN3 after removal of BACE inhibitor 1 (apo model used in silico) (P56817 58-446 limits assumed): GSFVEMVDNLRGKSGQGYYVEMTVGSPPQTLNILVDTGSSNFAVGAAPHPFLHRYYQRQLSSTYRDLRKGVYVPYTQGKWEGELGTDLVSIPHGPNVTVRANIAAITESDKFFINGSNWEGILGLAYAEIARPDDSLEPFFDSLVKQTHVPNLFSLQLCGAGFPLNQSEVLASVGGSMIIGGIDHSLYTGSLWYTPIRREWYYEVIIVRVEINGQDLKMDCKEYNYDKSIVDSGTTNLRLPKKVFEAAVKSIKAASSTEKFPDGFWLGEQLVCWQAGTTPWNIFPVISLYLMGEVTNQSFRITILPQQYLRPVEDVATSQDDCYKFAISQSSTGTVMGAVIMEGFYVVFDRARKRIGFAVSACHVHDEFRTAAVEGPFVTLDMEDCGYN

Binder | BACE Binding ΔG [kcal/mol]
Ac-ALYPYFLPISAK-NH2 [Peptide 65007] | -45.1
Ac-NLTTYPYFIPL-NH2 [Peptide 65005] | -25.4
